According to patent US20210095004:

How the values were obtained:
Aca cand9 = biological target: T1, Aca cand9
T1 chain: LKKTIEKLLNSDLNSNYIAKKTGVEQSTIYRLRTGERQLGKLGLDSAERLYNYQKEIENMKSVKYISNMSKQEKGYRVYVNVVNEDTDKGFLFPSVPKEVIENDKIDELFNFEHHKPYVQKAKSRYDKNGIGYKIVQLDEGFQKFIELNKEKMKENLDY

truncated Aca cand9 = biological target: T2, truncated Aca cand9
T2 chain: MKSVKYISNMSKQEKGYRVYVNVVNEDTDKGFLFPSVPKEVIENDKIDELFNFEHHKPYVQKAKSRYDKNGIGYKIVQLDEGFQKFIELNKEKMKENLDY

truncated Aca cand27 = biological target: T3, truncated Aca cand27
T3 chain: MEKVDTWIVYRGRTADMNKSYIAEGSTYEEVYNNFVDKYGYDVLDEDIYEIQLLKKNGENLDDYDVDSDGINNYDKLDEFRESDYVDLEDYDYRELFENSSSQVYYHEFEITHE

Aca cand27 = biological target: T4, Aca cand27
T4 chain: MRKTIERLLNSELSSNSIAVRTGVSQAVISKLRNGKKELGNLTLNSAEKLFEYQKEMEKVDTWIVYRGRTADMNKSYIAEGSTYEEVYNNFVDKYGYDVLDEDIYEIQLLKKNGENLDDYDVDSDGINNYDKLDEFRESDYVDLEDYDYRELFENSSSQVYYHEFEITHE

B1: Staphylococcus aureus Cas9 (protein)
chain: MKRNYILGLDIGITSVGYGIIDYETRDVIDAGVRLFKEANVENNEGRRSKRGARRLKRRRRHRIQRVKKLLFDYNLLTDHSELSGINPYEARVKGLSQKLSEEEFSAALLHLAKRRGVHNVNEVEEDTGNELSTKEQISRNSKALEEKYVAELQLERLKKDGEVRGSINRFKTSDYVKEAKQLLKVQKAYHQLDQSFIDTYIDLLETRRTYYEGPGEGSPFGWKDIKEWYEMLMGHCTYFPEELRSVKYAYNADLYNALNDLNNLVITRDENEKLEYYEKFQIIENVFKQKKKPTLKQIAKEILVNEEDIKGYRVTSTGKPEFTNLKVYHDIKDITARKEIIENAELLDQIAKILTIYQSSEDIQEELTNLNSELTQEEIEQISNLKGYTGTHNLSLKAINLILDELWHTNDNQIAIFNRLKLVPKKVDLSQQKEIPTTLVDDFILSPVVKRSFIQSIKVINAIIKKYGLPNDIIIELAREKNSKDAQKMINEMQKRNRQTNERIEEIIRTTGKENAKYLIEKIKLHDMQEGKCLYSLEAIPLEDLLNNPFNYEVDHIIPRSVSFDNSFNNKVLVKQEENSKKGNRTPFQYLSSSDSKISYETFKKHILNLAKGKGRISKTKKEYLLEERDINRFSVQKDFINRNLVDTRYATRGLMNLLRSYFRVNNLDVKVKSINGGFTSFLRRKWKFKKERNKGYKHHAEDALIIANADFIFKEWKKLDKAKKVMENQMFEEKQAESMPEIETEQEYKEIFITPHQIKHIKDFKDYKYSHRVDKKPNRELINDTLYSTRKDDKGNTLIVNNLNGLYDKDNDKLKKLINKSPEKLLMYHHDPQTYQKLKLIMEQYGDEKNPLYKYYEETGNYLTKYSKKDNGPVIKKIKYYGNKLNAHLDITDDYPNSRNKVVKLSLKPYRFDVYLDNGVYKFVTVKNLDVIKKENYYEVNSKCYEEAKKLKKISNQAEFIASFYNNDLIKINGELYRVIGVNNDLLNRIEVNMIDITYREYLENMNDKRPPRIIKTIASKTQSIKKYSTDILGNLYEVKSKKHPQIIKKG
SauCas9-mediated cleavage of target DNA in vitro (FIG. 1) (Aca cand9): inhibited SauCas9-mediated cleavage of target DNA at Acr:SauCas9 molar ratios of 10:1 and 20:1 | SauCas9/guide RNA-mediated cleavage of target DNA in vitro (FIG. 2B) (truncated Aca cand9): inhibited SauCas9/guide RNA-mediated cleavage of target DNA at truncated Acr:SauCas9 molar ratios of 5:1, 10:1, and 20:1 | SauCas9/guide RNA-mediated cleavage of target DNA in vitro (FIG. 2C) (truncated Aca cand27): inhibited SauCas9/guide RNA-mediated cleavage of target DNA at truncated Acr:SauCas9 molar ratios of 5:1, 10:1, and 20:1 | SauCas9-mediated cleavage of target DNA in vitro (FIG. 1) (Aca cand27): inhibited SauCas9-mediated cleavage of target DNA at Acr:SauCas9 molar ratios of 10:1 and 20:1
